This is an account of results in the Immune Epitope Database (IEDB).

In one test the target is HLA-B*45:01. Kind of test: IEDB peptide-MHC binding, purified MHC/competitive/radioactivity; filed as Kd, often an IC50 or EC50 that approximates it; ≥ and ≤ were set here for values at or beyond the usual limits of such assays.
In a further test the target is HLA-B*18:01. The test is described as above.
A further test deals with HLA-B*44:03. The test is described as above.
Another test has as its target HLA-B*44:02. The test is described as above.
A further test deals with HLA-B*40:02. The test is described as above.
A further test concerns the target HLA-B*40:01. The test is described as above.
For test [1], the target named is HLA-A*02:01. Kind of test: IEDB peptide-MHC binding, purified MHC/competitive/fluorescence; filed as Kd, often an IC50 or EC50 that approximates it; ≥ and ≤ were set here for values at or beyond the usual limits of such assays.
The next test has as its target HLA-A*26:01. The test is described as above.
Test [2] concerns the target HLA-A*02:01. As to the kind of experiment: IEDB peptide-MHC binding, purified MHC/competitive/radioactivity; filed as Kd, often an IC50 or EC50 that approximates it; ≥ and ≤ were set here for values at or beyond the usual limits of such assays.
For test [3], the target named is HLA-B*15:01. The test is described as above.
The target of the next test is HLA-A*02:02. Described as above.
The target of another test is HLA-A*02:06. The test is described as above.
For a further test, the target named is HLA-A*02:03. The description is as above.
The target of test [4] is HLA-B*15:01. Kind of test: IEDB peptide-MHC binding, purified MHC/competitive/fluorescence; filed as Kd, often an IC50 or EC50 that approximates it; ≥ and ≤ were set here for values at or beyond the usual limits of such assays.
A further test addresses HLA-A*24:02. Kind of test: IEDB peptide-MHC binding, purified MHC/competitive/radioactivity; filed as Kd, often an IC50 or EC50 that approximates it; ≥ and ≤ were set here for values at or beyond the usual limits of such assays. The conditions noted are these: source organism: Dengue virus 1 Brazil/97-11/1997.
The target in the next test is HLA-A*23:01. Described as above. The conditions noted are these: source organism: Dengue virus 1 Brazil/97-11/1997.
The target in another test is HLA-A*32:01. The description is as above. The conditions noted are these: source organism: Vaccinia virus WR.
For another test, the target named is HLA-A*68:02. Described as above. The conditions noted are these: source organism: Homo sapiens.
Where [5] appears, read: source organism: SARS coronavirus Tor2.
Where [6] appears, read: source organism: Mammarenavirus machupoense.
Where [7] appears, read: source organism: Vaccinia virus WR.
Where [8] appears, read: source organism: Lassa virus Josiah.
The mark [9] stands for this setting: source organism: Mammarenavirus juninense.

The Kd is the concentration at which binding is half-saturated. For the sequence GDYFVLTSHT, the Kd is at least 70000 nM in the test with HLA-B*45:01 (setting [5]); at least 70500 nM with HLA-B*18:01 (setting [5]); at least 22600 nM with HLA-B*44:03 (setting [5]); at least 50900 nM with HLA-B*44:02 (setting [5]); at least 37700 nM with HLA-B*40:02 (setting [5]); at least 69600 nM with HLA-B*40:01 (setting [5]).

In the case of CELYHYQECV, the Kd is 425 nM in the test with HLA-B*45:01 (setting [5]); at least 36200 nM with HLA-B*18:01 (setting [5]); 4200 nM with HLA-B*44:03 (setting [5]); 7850 nM with HLA-B*44:02 (setting [5]); 8200 nM with HLA-B*40:02 (setting [5]); 1720 nM with HLA-B*40:01 (setting [5]).

On to KEKAPDVGVL, for which the Kd with HLA-B*45:01 (setting [6]) is at least 30900 nM; in the test with HLA-B*18:01 (setting [6]), at least 70400 nM; with HLA-B*44:03 (setting [6]), at least 62100 nM; with HLA-B*44:02 (setting [6]), 2410 nM; with HLA-B*40:02 (setting [6]), 64.9 nM; in the test with HLA-B*40:01 (setting [6]) it was 1050 nM.

In the test with HLA-A*02:01 [1] (source organism: Influenza A virus (A/Harbin/1/1988(H1N2))), TVLEKNVTV came in with an equilibrium dissociation constant (Kd) of 5.8 nM.

With EISSIISLM, the Kd with HLA-A*26:01 (source organism: Bacillus anthracis str. A2012) turned out to be 9.8 nM.

With EEVAIILASF, the Kd came to 1390 nM with HLA-B*45:01 (setting [5]); 108 nM with HLA-B*18:01 (setting [5]); 19.2 nM in the test with HLA-B*44:03 (setting [5]); 77.6 nM in the test with HLA-B*44:02 (setting [5]); 406 nM with HLA-B*40:02 (setting [5]); 3430 nM with HLA-B*40:01 (setting [5]).

On to QALTDLGLI, for which the Kd in the test with HLA-A*02:01 [2] (source organism: Lassa virus GA391) was 3570 nM.

The sequence DICSGLQQL had a Kd with HLA-A*26:01 (source organism: Escherichia coli O139:H28 str. E24377A) of at least 20000 nM.

In the case of QIHLAIMAVF, the Kd with HLA-B*15:01 [3] (source organism: Dengue virus 4 Philippines/H241/1956) was found to be 17 nM.

For LVQYRILPM, the Kd with HLA-B*15:01 [3] (setting [7]) was determined as 63.3 nM; with HLA-A*02:02 (setting [7]), 14800 nM; with HLA-A*02:06 (setting [7]), 4670 nM; with HLA-A*02:03 (setting [7]), 1170 nM.

As to ILRHSTAHL, in the test with HLA-B*15:01 [4] (source organism: Bacillus anthracis str. A0488), the Kd was determined as 142 nM.

VMAFIAFLRF: the dissociation constant Kd amounted to 62.3 nM in the test with HLA-B*15:01 [3] (source organism: Dengue virus 1 Brazil/97-11/1997), 901 nM with HLA-A*24:02 and 846 nM in the test with HLA-A*23:01.

With NDFVSDADST, the dissociation constant (Kd) with HLA-B*45:01 (setting [5]) was 2600 nM; in the test with HLA-B*18:01 (setting [5]), at least 70500 nM; in the test with HLA-B*44:03 (setting [5]) it was at least 70100 nM; with HLA-B*44:02 (setting [5]), at least 32700 nM; with HLA-B*40:02 (setting [5]) it was at least 70800 nM; with HLA-B*40:01 (setting [5]), at least 69600 nM.

LLWFLTGTF: the Kd was determined as 0.776 nM in the test with HLA-B*15:01 [3] (setting [7]) and 93 nM with HLA-A*32:01.

AEAQMSIQLI: the Kd with HLA-B*45:01 (setting [8]) was 78.9 nM; with HLA-B*18:01 (setting [8]), at least 23500 nM; with HLA-B*44:03 (setting [8]) it was 69.1 nM; with HLA-B*44:02 (setting [8]), 34.6 nM; with HLA-B*40:02 (setting [8]), 53.9 nM; with HLA-B*40:01 (setting [8]) it was 1300 nM.

For the sequence EELIKLRFWF, the Kd with HLA-B*45:01 (setting [9]) is 9880 nM; in the test with HLA-B*18:01 (setting [9]) it was 748 nM; in the test with HLA-B*44:03 (setting [9]), 132 nM; with HLA-B*44:02 (setting [9]), 680 nM; with HLA-B*40:02 (setting [9]), 10400 nM; with HLA-B*40:01 (setting [9]) it was at least 36700 nM.

Regarding NSKNTSMSF, the Kd in the test with HLA-B*15:01 [3] (source organism: Dengue virus 3 Martinique/1243/1999) is 526 nM.

Regarding MMKTYIEFV, in the test with HLA-B*15:01 [3] (setting [7]), the Kd amounted to 170 nM.

For PLESDAVECL, the Kd in the test with HLA-A*02:02 (source organism: Homo sapiens) was 4230 nM; with HLA-A*02:06 (source organism: Homo sapiens) it was at least 68500 nM; in the test with HLA-A*02:03 (source organism: Homo sapiens) it was 11900 nM; with HLA-A*68:02, at least 65200 nM; with HLA-A*02:01 [2] (source organism: Homo sapiens) it was at least 63100 nM.

On to AVDLSHFL, for which the Kd in the test with HLA-B*15:01 [4] (source organism: Chloroflexus aurantiacus J-10-fl) is at least 20000 nM.

MDGIQYGRSG: the Kd with HLA-B*45:01 (setting [5]) is 10900 nM; in the test with HLA-B*18:01 (setting [5]) it was at least 70500 nM; with HLA-B*44:03 (setting [5]), at least 58600 nM; with HLA-B*44:02 (setting [5]), at least 49900 nM; in the test with HLA-B*40:02 (setting [5]), at least 70800 nM; in the test with HLA-B*40:01 (setting [5]), at least 69600 nM.

RIMAWTVVNSI yielded a Kd in the test with HLA-A*02:01 [1] (source organism: Influenza A virus (A/chicken/California/1002a/00(H6N2))) of at most 1 nM.

Regarding NAHKLILSG, the Kd in the test with HLA-B*15:01 [3] (setting [7]) was 18100 nM.

In the case of GLSRPLLRL, in the test with HLA-A*02:01 [2] (source organism: Hepatitis B virus subtype ayw), the Kd was at least 5000 nM.
